The supplement of paper PMC12042874
± gives the uncertainty stated by the source.

Assay: amyloid nucleation score (Sup35N fusion, yeast selection) (log enrichment); library NNK1; higher = more nucleation; inactive = no reads after selection
Method in brief: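 Growth for 7 days at 30°C on medium lacking adenine and uracil followed a 24-hour induction with 100 μM copper sulfate of psi-negative yeast expressing peptides of 20 random codons fused to Sup35N. Input and output plasmid inserts were sequenced with Illumina, and sequences with under 100 input reads were excluded. Nucleation score is the DiMSum log enrichment of output over input reads, centred on the mode score of non-aggregating sequences.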

Substance | amyloid nucleation score
LTGCLNEYGVSNFMEVRVFR | -1.88 ± 2.7
KFLLLSCYIEWRLMSVLAKA | 0.968 ± 0.69
HFMWAYRCSDYDLM | 2.01 ± 0.11
YSFIKCGSMCKEYKPCPTKL | -0.11 ± 0.51
VFAICGSTCVGEKGTWPGEG | -0.263 ± 1.4
DTLIFVLREVTLLNDAGVSS | 0.646 ± 0.42
KEHRPWGCW | inactive
GLSQWGTVRCHTAASIYLAT | 0.316 ± 0.58
CQLSNTSIACSLYNLHCRSW | 4.42 ± 0.13
YIYDIGGLTHATMRCTCR | 0.635 ± 0.49
SVRTCFNRYLKQVRVWSYAG | -0.165 ± 1.6
FHEDKIS | 1.34 ± 0.36
LYAAYCRQGTTHAIR | -0.389 ± 0.54
SHYTHVFLM | -0.468 ± 0.93
TNNSWCFFLRLGYT | 5.05 ± 0.076
GSRSHRSH | 0.751 ± 0.67
MRVGIWDKMRSLRCDISAC | 0.293 ± 0.66
NSMNLNG | inactive
NHVYCVWMRMFMIYFNL | -0.17 ± 0.54
MLHYSARGFRRHK | 0.326 ± 1.2
CQIFELLSNVRVTLLIYNSG | 1.41 ± 0.19
VLLTMWFNFFLLRNRGVVFS | 2.65 ± 0.08
FVECSERRGSKGSLYIDEVS | -0.629 ± 0.73
DLTVRPACAGCRLYSEVILD | -0.852 ± 1.6

Substance | amyloid nucleation score
HRSCCNKRRRERNFSDWTGV | 0.542 ± 0.77
LDEFSTSISITEWSSKL | -0.261 ± 0.3
HGFNPNWGSRVKGSMVRV | -0.044 ± 0.47
FSSIVSGTLAI | inactive
TFYNFAMSFKEVCCCMSWRG | 7.143 ± 0.058
GEDVFVRSNELRN | 0.338 ± 0.38
GLLSK | -0.062 ± 0.56
IDVGSHFCSFQEHKACGTSL | 0.31 ± 0.47
DVRRYSGLNRAMKLRWGSCA | 0.193 ± 0.79
TCWVGYYVCW | -0.336 ± 0.53
TIWFAF | -0.128 ± 0.64
CSLNLNCVS | 3.76 ± 0.13
ETTRNKAMNTFMLPFSQSCK | 0.39 ± 0.56
LYHIGIGLKRSFNDAYV | 0.038 ± 0.44
IDHNLSGLVC | 0.544 ± 0.97
LPIRASGNHL | 0.495 ± 0.79
ILEEYYLCIWLEVAWHICHA | -0.571 ± 0.8
LKYCYGTT | 0.171 ± 0.29
RVYISMM | -1.41 ± 1.7
MFAWLDDLFRY | -0.3 ± 0.38
INFARPVTILTYATFSVFGN | 4.9 ± 0.082
MISLHVL | -0.109 ± 1.3
IVSLNGPAKSSAFGKFSGPL | -0.602 ± 0.72
GSNPVVSLW | 0.076 ± 0.44

Substance | amyloid nucleation score
ILLMSNYYAVRQEEFDQLPV | inactive
SWASKRCSPCCDGSGFPMYL | -1.37 ± 2.7
MWWAHDGFRSCLRHISHADG | 0.349 ± 0.91
CGKESRVRVKYCVFGIKKWQ | -0.518 ± 0.53
FYRQFHHLGEDPLH | -0.583 ± 0.53
EVILFNGLRMRAVPETWAST | 0.587 ± 0.4
MARVC | -1.56 ± 2.4
IIKDDLRMCWDGKRYWNSLI | 0.713 ± 0.32
DTKCMMENRAIVMFCIQGKH | 0.827 ± 0.3
FKRRKSFAHCRFAGVVRRWW | -0.581 ± 1.2
EDDFASMRLDSLRELVLHNR | inactive
ETHVRAPSGGNAGPLRRGSS | -0.877 ± 0.52
SVIVLFTIRRSWRPHSFRES | 0.94 ± 0.32
GTHEVLCNDHPCVYRHILRC | -0.753 ± 0.3
LHTKVV | 0.431 ± 0.77
RFEIIYGWSTYVLDAGVSFQ | 1.21 ± 0.13
HSTCLPNTIQTLRRRALSCR | -1.22 ± 1.9
GHSLHLWVTTKS | 0.561 ± 0.66
TVRRVGISWNWYIKTLYGSD | -1.12 ± 0.88
PHVFRFSFPTLILIGSFNFC | 3.14 ± 0.12
RITHRFVFTRAFTNGRALLR | 0.405 ± 0.27
SLEDLWTRVERIRASEPVLG | -0.293 ± 0.92
GVDRVQCVFLSRVEWLGTPG | 0.198 ± 0.67
